Measurements as given in patent US6136558A, “Heregulin variants” (Genentech, Inc., priority 1998, dated 2000).
Positions count from the first letter of the chain named. Numbers in names are those of the source.

Tests used:
[1] = target: ErbB-3 receptor-Ig fusion (human) (UniProt P21860); experiment: phage ELISA, soluble ErbB-3-Ig as competitor
[2] = target: ErbB-4 receptor-Ig fusion (human) (UniProt Q15303); experiment: phage ELISA, soluble ErbB-4-Ig as competitor
[3] = target: ErbB-3 receptor-Ig fusion (human) (UniProt P21860); experiment: phage ELISA, ratio to wild-type HRG8 phage
[4] = target: ErbB-4 receptor-Ig fusion (human) (UniProt Q15303); experiment: displacement of 125I-HRG-β1 177-244 from ErbB-4-Ig
[5] = target: ErbB-3 receptor-Ig fusion (human) (UniProt P21860); experiment: displacement of 125I-HRG-β1 177-244 from ErbB-3-Ig

HRG-β1 177-244 N192A on phage (ligand)
EC50 [1]: > 1000 nM
EC50 [2]: 188 nM

HRG-β1 177-244 Y224A on phage (ligand)
EC50 [1]: 865 nM
EC50 [2]: 51 nM

HRG-β1 177-244 G218A on phage (ligand)
EC50 [1]: > 1000 nM
EC50 [2]: > 1000 nM

HRG-β1 177-244 F216A on phage (ligand)
EC50 [1]: 500 nM
EC50 [2]: > 1000 nM

HRG-β1 177-244 K200A on phage (ligand)
EC50 [1]: 20 nM
EC50 [2]: 25 nM

HRG-β1 177-244 G194A on phage (ligand)
EC50 [1]: 500 nM
EC50 [2]: 65 nM

HRG-β1 177-244 K211A on phage (ligand)
EC50 [1]: > 1000 nM
EC50 [2]: 59 nM

HRG-β1 177-244 H178A on phage (ligand)
EC50 [1]: > 1000 nM
EC50 [2]: 32 nM

HRG-β1 177-244 P205A on phage (ligand)
EC50 [1]: 22 nM
EC50 [2]: 8 nM

HRG-β1 177-244 F229A on phage (ligand)
EC50 [1]: 6 nM
EC50 [2]: > 1000 nM

HRG-β1 177-244 G193A on phage (ligand)
EC50 [1]: > 1000 nM
EC50 [2]: 23 nM

HRG-β1 177-244 T217A on phage (ligand)
EC50 [1]: > 1000 nM
EC50 [2]: 14.2 nM

HRG-β1 177-244 L179A on phage (ligand)
EC50 [1]: 1000 nM
EC50 [2]: 56 nM

HRG-β1 177-244 R220A on phage (ligand)
EC50 [1]: > 1000 nM
EC50 [2]: > 1000 nM

HRG-β1 177-244 E195A on phage (ligand)
EC50 [1]: > 1000 nM
EC50 [2]: 24 nM

SHLVKCAEKEKTFCVNGGECFMVKDPSRYLCKCPNEFTGDRCQNYVMAS (ligand) [HRG63 (phage)]
EC50(wt)/EC50(mut) [3]: 1.1

B1: A1 (phage) (ligand)
chain: WRLVPCAEKEKTFCVNGGECFMVKDLSNPSRYLCKCPNEFTGDRCQNYVMAS
EC50(wt)/EC50(mut) [3]: 0.55

B2: A2 (phage) (ligand)
chain: B1 chain with R2S, V4Q
EC50(wt)/EC50(mut) [3]: 0.87

B3: A4 (phage) (ligand)
chain: B1 chain with R2S, P5K
EC50(wt)/EC50(mut) [3]: < 0.3

B4: B5 (phage) (ligand)
chain: SHLVKCGWDREGFCVNGGECFMVKDLSNPSRYLCKCPNEFTGDRCQNYVIAS
EC50(wt)/EC50(mut) [3]: 26

B5: B10 (phage) (ligand)
chain: B4 chain with G7D, W8K, D9S
EC50(wt)/EC50(mut) [3]: 9.3

B6: D1 (phage) (ligand)
chain: SHLVKCAEKEKTFCVNGGECYKVRILSNPSRYLCKCPNEFTGDRCQNYVIAS
EC50(wt)/EC50(mut) [3]: 11

B7: D10 (phage) (ligand)
chain: B6 chain with K22M, R24K, I25T, I50M
EC50(wt)/EC50(mut) [3]: 2.1

SHLVKCAEKEKTFCVNGGECFMVKDYRYRMCKCPNEFTGDRCQNYVIAS (ligand) [E3 (phage)]
EC50(wt)/EC50(mut) [3]: 16

B8: H5 (phage) (ligand)
chain: B1 chain with W1S, R2H, P5K, D43E
EC50(wt)/EC50(mut) [3]: 1.5

B9: I1 (phage) (ligand)
chain: B6 chain with Y21F, K22M, R24K, I25D, N47W
EC50(wt)/EC50(mut) [3]: 13

B10: recombinantly produced HRG-β1 177-244 (ligand)
chain: SHLVKCAEKEKTFCVNGGECFMVKDLSNPSRYLCKCPNEFTGDRCQNYVMASFYKHLGIEFMEAEELY
EC50 [4]: 14.8 nM
EC50 [5]: 9 nM

B11: HRG37 (phage) (ligand)
chain: B4 chain with S1W, H2E, K5P
EC50(wt)/EC50(mut) [3]: 13

SHLVKCAEKEKTFCVNGGECFMVKDYGYLMCKCPNEFTGDRCQNYVIAS (ligand) [HRG48 (phage)]
EC50(wt)/EC50(mut) [3]: 49

B12: HRG53 (phage) (ligand)
chain: B4 chain with W8E, D9E, F21Y, M22R, D25T, I50M
EC50(wt)/EC50(mut) [3]: 26

SHLVKCGEEREGFCVNGGECFMVKDYGYLMCKCPNEFTGDRCQNYVMAS (ligand) [HRG54 (phage)]
EC50(wt)/EC50(mut) [3]: 12

SHLVKCGEEREGFCVNGGECYRVKTYGYLMCKCPNEFTGDRCQNYVMAS (ligand) [HRG55 (phage)]
EC50(wt)/EC50(mut) [3]: 13

B13: HRG56 (phage) (ligand)
chain: B4 chain with W8E, D9E
EC50(wt)/EC50(mut) [3]: 31

SHLVKCAEKEKTFCVNGGECYRVKTYGYLMCKCPNEFTGDRCQNYVMAS (ligand) [HRG57 (phage)]
EC50(wt)/EC50(mut) [3]: 24

B14: HRG59 (phage) (ligand)
chain: B6 chain with K22R, R24K, I25T
EC50(wt)/EC50(mut) [3]: 26

B15: HRG60 (phage) (ligand)
chain: B4 chain with W8E, D9E, F21Y, M22R, D25T
EC50(wt)/EC50(mut) [3]: 63

SHLVKCGEEREGFCVNGGECFMVKDYGYLMCKCPNEFTGDRCQNYVIAS (ligand) [HRG61 (phage)]
EC50(wt)/EC50(mut) [3]: 29

SHLVKCGEEREGFCVNGGECYRVKTYGYLMCKCPNEFTGDRCQNYVIAS (ligand) [HRG62 (phage)]
EC50(wt)/EC50(mut) [3]: 32

SHLVKCAEKEKTFCVNGGECYRVKTYGYLMCKCPNEFTGDRCQHYVIAS (ligand) [HRG71 (phage)]
EC50(wt)/EC50(mut) [3]: 79

B16: Trx-HRG-β1 146-244 S177A fusion (ligand)
chain: DDDDKAYVSSESPIRISVSTEGANTSSSTSTSTTGTAHLVKCAEKEKTFCVNGGECFMVKDLSNPSRYLCKCPNEFTGDRCQNYVMASFYKHLGIEFMEAEELY
EC50 [4]: 54.6 nM
EC50 [5]: 129 nM

B17: Trx-HRG-β1 146-244 H178A fusion (ligand)
chain: B16 chain with A37S, H38A
EC50 [4]: 138 nM
EC50 [5]: 476 nM

B18: Trx-HRG-β1 146-244 L179A fusion (ligand)
chain: B16 chain with A37S, L39A
EC50 [4]: 51.7 nM
EC50 [5]: 394 nM

B19: Trx-HRG-β1 146-244 F189A fusion (ligand)
chain: B16 chain with A37S, F49A
EC50 [4]: 565 nM
EC50 [5]: 975 nM

B20: Trx-HRG-β1 146-244 N192A fusion (ligand)
chain: B16 chain with A37S, N52A
EC50 [4]: 696 nM
EC50 [5]: 1640 nM

B21: Trx-HRG-β1 146-244 G193A fusion (ligand)
chain: B16 chain with A37S, G53A
EC50 [4]: 76.3 nM
EC50 [5]: 26.9 nM

B22: Trx-HRG-β1 146-244 G194A fusion (ligand)
chain: B16 chain with A37S, G54A
EC50 [4]: 275 nM
EC50 [5]: 1210 nM

B23: Trx-HRG-β1 146-244 E195A fusion (ligand)
chain: B16 chain with A37S, E55A
EC50 [4]: 13.2 nM
EC50 [5]: 42 nM

B24: Trx-HRG-β1 146-244 K200A fusion (ligand)
chain: B16 chain with A37S, K60A
EC50 [4]: 16.9 nM
EC50 [5]: 45.4 nM

B25: Trx-HRG-β1 146-244 P205A fusion (ligand)
chain: B16 chain with A37S, P65A
EC50 [4]: 34.2 nM
EC50 [5]: 39.5 nM

B26: Trx-HRG-β1 146-244 R207A fusion (ligand)
chain: B16 chain with A37S, R67A
EC50 [4]: 24.3 nM
EC50 [5]: 245 nM

B27: Trx-HRG-β1 146-244 K211A fusion (ligand)
chain: B16 chain with A37S, K71A
EC50 [4]: 124 nM
EC50 [5]: 248 nM

B28: Trx-HRG-β1 146-244 E215A fusion (ligand)
chain: B16 chain with A37S, E75A
EC50 [4]: 104 nM
EC50 [5]: 156 nM

B29: Trx-HRG-β1 146-244 F216A fusion (ligand)
chain: B16 chain with A37S, F76A
EC50 [4]: 173 nM
EC50 [5]: 2550 nM

B30: Trx-HRG-β1 146-244 T217A fusion (ligand)
chain: B16 chain with A37S, T77A
EC50 [4]: 32.7 nM
EC50 [5]: 145 nM

B31: Trx-HRG-β1 146-244 G218A fusion (ligand)
chain: B16 chain with A37S, G78A
EC50 [4]: 608 nM
EC50 [5]: 668 nM

B32: Trx-HRG-β1 146-244 Y224A fusion (ligand)
chain: B16 chain with A37S, Y84A
EC50 [4]: 24.5 nM
EC50 [5]: 339 nM

B33: Trx-HRG-β1 146-244 F229A fusion (ligand)
chain: B16 chain with A37S, F89A
EC50 [4]: 89.9 nM
EC50 [5]: 177 nM

B34: Trx-HRG-β1 146-244 V199A fusion (ligand)
chain: B16 chain with A37S, V59A
EC50 [4]: 246 nM
